From IntAct's records for PubMed 18787122

B1: Secreted effector protein SifA (Salmonella typhimurium), Q56061 (parent)
chain: MPITIGNGFLKSEILTNSPRNTKEAWWKVLWEKIKDFFFSTGKAKADRCLHEMLFAERAPTRERLTEIFFELKELACASQRDRFQVHNPHENDATIILRIMDQNEENELLRITQNTDTFSCEVMGNLYFLMKDRPDILKSHPQMTAMIKRRYSEIVDYPLPSTLCLNPAGAPILSVPLDNIEGYLYTELRKGHLDGWKAQEKATYLAAKIQSGIEKTTRILHHANISESTQQNAFLETMAMCGLKQLEIPPPHTHIPIEKMVKEVLLADKTFQAFLVTDPSTSQSMLAEIVEAISDQVFHAIFRIDPQAIQKMAEEQLTTLHVRSEQQSGCLCCFL
partner: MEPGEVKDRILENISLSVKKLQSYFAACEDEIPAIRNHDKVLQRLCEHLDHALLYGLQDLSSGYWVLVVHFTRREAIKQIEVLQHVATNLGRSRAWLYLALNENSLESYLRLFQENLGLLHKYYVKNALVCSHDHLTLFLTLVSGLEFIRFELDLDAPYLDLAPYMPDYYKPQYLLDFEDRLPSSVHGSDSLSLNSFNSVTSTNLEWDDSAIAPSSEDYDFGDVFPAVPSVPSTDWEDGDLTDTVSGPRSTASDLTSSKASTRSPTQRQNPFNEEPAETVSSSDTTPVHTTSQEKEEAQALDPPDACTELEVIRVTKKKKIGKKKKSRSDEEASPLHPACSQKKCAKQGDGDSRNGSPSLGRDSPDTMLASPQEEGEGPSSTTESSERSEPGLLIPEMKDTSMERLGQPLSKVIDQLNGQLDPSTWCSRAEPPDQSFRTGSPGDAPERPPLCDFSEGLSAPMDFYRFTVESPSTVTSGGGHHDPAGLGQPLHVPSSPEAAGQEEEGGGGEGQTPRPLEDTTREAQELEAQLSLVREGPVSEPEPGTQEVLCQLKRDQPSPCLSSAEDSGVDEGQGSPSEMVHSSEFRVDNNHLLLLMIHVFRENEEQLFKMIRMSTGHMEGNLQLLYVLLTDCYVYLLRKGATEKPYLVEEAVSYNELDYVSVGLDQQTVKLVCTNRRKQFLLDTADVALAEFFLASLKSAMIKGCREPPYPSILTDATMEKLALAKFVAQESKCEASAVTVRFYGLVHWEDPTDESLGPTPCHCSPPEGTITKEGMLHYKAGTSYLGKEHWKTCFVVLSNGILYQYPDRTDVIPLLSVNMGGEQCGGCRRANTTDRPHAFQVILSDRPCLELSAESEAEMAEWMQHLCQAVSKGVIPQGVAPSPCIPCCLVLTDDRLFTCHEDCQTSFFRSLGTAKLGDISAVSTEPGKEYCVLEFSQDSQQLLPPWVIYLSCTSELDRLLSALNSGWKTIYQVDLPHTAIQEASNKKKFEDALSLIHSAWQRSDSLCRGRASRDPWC

Variants of: B1
Conditions: with pkhm2_human PLEKHM2, Q8IWE5
For MPITIGNGFLKSEILTNSPRNTKEAWWKVLWEKIKDFFFSTGKAKADRCLHEMLFAERAPTRERLTEIFFELKELACASQRDRFQVHNPHENDATIILRIMDQNEENELLRITQNTDTFSCEVMGNLYFLMKDRPDILKSHPQMTAMIKRRYSEIVDYPLPSTLCLNPAGAPILSVPLDNIEGYLYTELRKGHLDGAKAQAKATYLAAKIQSGIEKTTRILHHANISESTQQNAFLETMAMCGLKQLEIPPPHTHIPIEKMVKEVLLADKTFQAFLVTDPSTSQSMLAEIVEAISDQVFHAIFRIDPQAIQKMAEEQLTTLHVRSEQQSGCLCCFL [W197A;E201A], the “effect of a mutation on the interaction” value was “decreasing interaction”.
